Test results published in patent CN115594767A.

Assays:
CD16A-158V = CD16A-158V (UniProt P08637); experiment: BLI, CD16A-158V on anti-his probe, antibody as analyte
[1] = target: HER2 (Human epidermal growth factor receptor 2) (human) (UniProt P04626); experiment: ELISA, HER2 coated at 1 ug/mL, HRP-anti-human IgG Fc detection

UniProt P08637, sequence (P08637 17-208 F176V limits assumed): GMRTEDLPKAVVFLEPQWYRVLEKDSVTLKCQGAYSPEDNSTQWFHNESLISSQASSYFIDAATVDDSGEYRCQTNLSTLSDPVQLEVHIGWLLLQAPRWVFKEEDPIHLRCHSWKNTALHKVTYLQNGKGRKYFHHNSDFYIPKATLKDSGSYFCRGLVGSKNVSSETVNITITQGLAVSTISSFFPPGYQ

| Kd (CD16A-158V) [nM] | koff (CD16A-158V) [s⁻¹] | kon (CD16A-158V) [M⁻¹ s⁻¹] | EC50 [1] [nM] | Substance |
| --- | --- | --- | --- | --- |
| 464 | 0.0782 | 168000 | 0.149 | KN026 (bispecific antibody) |
|  |  |  | 0.127 | MGAH22 (antibody) |
